The target of one data set is T1, Human calcitonin (hCT) (Homo sapiens, UniProt P01258).
T1 construct: made in house; host or cells: chemical peptide synthesis (on resin)
T1 sequence (P01258 85-116): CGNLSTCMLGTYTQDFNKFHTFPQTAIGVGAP
Nature of the data set: Calcitonin aggregation assay (transmittance at 540 nm, 37° C.). It is filed as physicochemical. The following applies: for time stabilized against aggregation: with 5 molar equivs CB[7]-PMet^CM80, with agitation, 37° C.; for time stabilized against aggregation / aggregation behavior alone: FIG. 5C; for stabilization against aggregation: with CB[7]-PMet^CM80, FIG. 5C; for aggregation behavior alone: without CB[7]-PMet^CM80, PBS pH 7.4, 37° C. The protocol: Aggregation assay methods. Insulin aggregation assay. Insulin aggregation was assessed (Sluzky, V.; et al. Proc. Natl. Acad. Sci. U.S.A 1991, 88 (21), 9377-9381; and Webber, M. J.; et al. Proc. Natl. Acad. Sci. U.S.A 2016, 113 (50), 14189-14194). Insulin or calcitonin samples at pH 7.4 PBS and a final concentration of 1 mg/mL were prepared with and without the addition of 1.5 molar equivs of CB [7]-PMet. Samples were plated in a clear 96-well plate (Thermo Scientific Nunc) at a volume of 150 μL per well (n=5 wells/group) and sealed with an optically clear and thermally stable seal. The plate was immediately placed into a Tecan Infinite M200 plate reader and shaken continuously at 37° C. Absorbance readings at 540 nm were collected every 6 min the duration of the experiment as reported, and absorbance values were subsequently converted to transmittance.
Calcitonin aggregation assay. hCT and analogs were dissolved in PBS buffer, pH 7.4 and centrifuged at 3000 rpm for 3 min. The supernatant concentration was determined by nanodrop (6=1615 M^−1cm^−1 at 280 nm). hCT and analogs were prepared at a final concentration of 0.5 mg/mL with and without 5 eq of PMet^CM80-CB[7]. Samples were plated at 150 μL per well in a clear 96-well plate (Fisher Scientific Nunc) and sealed with optically clear and thermally stable sealing tape (VWR). The plate was immediately placed into the plate reader at 37° C. Absorbance readings at 540 nm were collected every 6 min with 60 s shaking between reads for […]. Absorbance values were subsequently converted to transmittance.
Aggregation assays. Peptide therapeutics were prepared (Meudom, R.; et al. Curr. Res. Chem. Biol. 2022, 2, 100013) and aggregation was assessed (Sluzky, V.; et al. Proc. Natl. Acad. Sci. U.S.A 1991, 88 (21), 9377-938; and Webber, M. J.; et al. Proc. Natl. Acad. Sci. U.S.A 2016, 113 (50), 14189-14194). Insulin or calcitonin solutions were prepared in PBS at pH 7.4 at a final concentration of 1 mg/mL, and with and without the addition of 1.5 molar equivs of CB [7]-PMet for rHu insulin and 5 molar equivs for hCT. Samples were plated in a clear 96-well plate (Thermo Scientific Nunc) at a volume of 150 μL per well (n=wells/group) and sealed with an optically clear and thermally stable seal. The plate was shaken continuously at 37° C. and absorbance readings at 540 nm were collected every 6 min the duration of the experiment as reported. Absorbance values were subsequently converted to transmittance.
Next, the stabilizing effects of CB[7]-PMet^CM80 on other aggregation-prone proteins was assessed. Human calcitonin (hCT, FIG. 5A) was selected as a model protein therapeutic. Since hCT lacks a terminal Phe for host-guest complexation, the N-terminal amine was selectively modified on-resin with a benzylic amine group using reductive amination chemistry (FIG. 5B). To optimize binding, two spacer lengths between the terminal amine and the benzyl ring were examined comprising either one or two methylene units (hCT A1 and A2, respectively). Aggregation behavior over 40 h was examined using the methods described herein, and with or without CB[7]-PMet^CM80. […] However, addition of CB[7]-PMet^CM80 stabilized hCT A2 for at least 40 h with agitation, while hCT A1 was stabilized for ca. 34 h.

Data set [1] has as its target T2, recombinant human (rHu) insulin (Homo sapiens, UniProt P01308).
T2 construct: Insulin is a 51-residue protein
Nature of the data set: Insulin aggregation assay (transmittance at 540 nm, continuous agitation at 37° C.). It is filed as physicochemical.
Method: Insulin or calcitonin solutions were prepared in PBS at pH 7.4 at a final concentration of 1 mg/mL, and with and without the addition of 1.5 molar equivs of CB [7]-PMet for rHu insulin and 5 molar equivs for hCT. […] The plate was shaken continuously at 37° C. and absorbance readings at 540 nm were collected every 6 min the duration of the experiment as reported. Absorbance values were subsequently converted to transmittance. […]

The target in data set [2] is N-terminal phenylalanine residue on insulin (Homo sapiens, UniProt P01308). The following applies: CB[7] macrocycle binding N-terminal phenylalanine of insulin; cited from earlier work.
Data set [3] has as its system Chinese hamster ovary cells. The following applies: cited from earlier work.
For data set [4] the following is noted: mice, cited from earlier work.
Data set [5] addresses T2, recombinant human (rHu) insulin. The following applies: CB[7] alone, already shown; cited from earlier work.

Read-outs that look alike come from different tables or passages of the source.

T2 sequence (P01308 25-54 limits assumed): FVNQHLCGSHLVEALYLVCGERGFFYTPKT
T2 sequence (P01308 90-110 limits assumed): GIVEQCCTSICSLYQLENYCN
Chain of N-terminal phenylalanine residue on insulin (P01308 25-54 limits assumed): as the sequence (P01308 25-54 limits assumed) above

Consider “hCT A2: benzyl-functionalized human calcitonin with two methylene spacers between the terminal amine and the benzyl ring”, for which, in the data set with Human calcitonin (hCT), the “time stabilized against aggregation” value was “at least 40 h”, the stabilization against aggregation result is “resistance to aggregation” and the aggregation behavior alone result is “rapid aggregation”.
As to “hCT: Human calcitonin, SEQ ID NO: 3, H2N-CGNLSTCMLGTYTQDFNKFHTFPQTAIGVGAP”, in the data set with Human calcitonin (hCT), the stabilization against aggregation entry is “not stabilized” and the aggregation behavior alone entry was “rapid aggregation”.
Regarding “Poly-S-Carboxymethyl-L-Methionine Sulfonium Chloride Alkyne [PMetCM-Alk]”, the “inhibition of rHu insulin aggregation under continuous agitation” value in data set [1] (1 mg/mL insulin, PBS pH 7.4, 1.5 molar equivs additive, 37° C., 100 h, FIG. 3B) is listed as “no inhibition”.
On to “rHu insulin: recombinant human insulin, SEQ ID NO: 1 and SEQ ID NO: 2 chains”, for which the “aggregation of rHu insulin alone” value in data set [1] (no additive, continuous agitation at 37° C., within the first few hours) is recorded as “rapid aggregation”.
In the case of “hCT A1: benzyl-functionalized human calcitonin with one methylene spacer between the terminal amine and the benzyl ring”, in the data set with Human calcitonin (hCT), the “time stabilized against aggregation” value is “ca. 34 h” and the aggregation behavior alone entry was “rapid aggregation”.
The term IC50 denotes the point on the concentration scale where inhibition reaches its midpoint. On to cucurbit[7]uril [CB[7]], for which the Ka in data set [2] was 1.5e+06 M⁻¹. The IC50 in data set [3] was 530 ± 20 µM. The tolerated dose result in data set [4] (intravenous) was “up to 250 mg kg^−1”; in data set [4] (oral), ≤ 600 mg/kg. In data set [5], the “effect on rHu insulin stability” value is “no effect”.

The record behind these values is US20230381329A1, “Zwitterion Polymer-Drug Conjugates” (University of Utah Research Foundation, priority 2022, published 2023).
